From patent US20130243764A1 (published 2013)

How the values were obtained:
[1] = biological target: TNF alpha (species not given); assay: cell-based or functional assay
[2] = biological target: TNF alpha (species not given); assay: cell-based or functional assay; remark: listed apart in the source

IC50 value, TNFα-induced IL-6 release assay (whole blood) [2]: 0.11 nM
B1: BPC1500 (antibody, V domains shown)
VH: EVQLVESGGGLVQPGRSLRLSCAASGFTFDDHALHWVRQAPGKGLEWVSAITWNSGHIDYADSVEGRFTISRDNAKNSLYLQMNSLRAEDTAVYYCAKVRYLSTASSLDYWGQGTLVTVSS
VL: not shown
IC50 value, L929 neutralisation assay (cell viability) [1]: 0.13 µg/mL
